# B1: hyaluronan and proteoglycan link protein 1 (HAPLN1) (protein, listed as Homo sapiens)
# chain: MKSLLLLVLISICWADHLSDNYTLDHDRAIHIQAENGPHLLVEAEQAKVFSHRGGNVTLPCKFYRDPTAFGSGIHKIRIKWTKLTSDYLKEVDVFVSMGYHKKTYGGYQGRVFLKGGSDSDASLVITDLTLEDYGRYKCEVIEGLEDDTVVVALDLQGVVFPYFPRLGRYNLNFHEAQQACLDQDAVIASFDQLYDAWRGGLDWCNAGWLSDGSVQYPITKPREPCGGQNTVPGVRNYGFWDKDKSRYDVFCFTSNFNGRFYYLIHPTKLTYDEAVQACLNDGAQIAKVGQIFAAWKILGYDRCDAGWLADGSVRYPISRPRRRCSPTEAAVRFVGFPDKKHKLYGVYCFRAYN
# Key:
# [1] = tested on: corneal epithelial cells; assay: Detached corneal epithelial cells (H & E staining), rabbit dry eye model; assay type: in vivo, New Zealand white rabbits
# Experimental: Eyes of the rabbits including conjunctiva were enucleated, fixed with a specific fixing solution to be embedded into paraffin, and microsectioned, followed by staining and analysis according to the purpose. In this regard, the eyeballs were stained by hematoxylin & eosin (H & E) staining and detachment of corneal epithelial tissue was analyzed. After PAS staining, distribution of goblet cells in the conjunctiva was measured. In addition, after conjunctiva epithelium indentation (impression cytology), PAS staining was performed and distribution of goblet cells was measured.
# After 15 days of eye examination, on the 1st day after 16 days of drug treatment, eyes were enucleated, subjected to histopathological analysis, and paraffin blocked. Tissue was stained in a section slide by H & E staining (FIG. 16A). The number of corneal epithelial cells detached in a range of 200 μm^2 was measured and quantified (FIG. 16B).
# [2] = tested on: rabbit dry eye model; assay: Corneal fluorescein score, 0.1% benzalkonium chloride-induced dry eye disease model; assay type: in vivo, New Zealand white rabbits
# Experimental: Corneal fluorescein score assay and tear volume assay were respectively performed on eyeballs of rabbits treated with the compositions of Preparation Examples 1, 2, and 3 prepared in Example 7 above by using a 0.1% benzalkonium chloride (BAC)-induced dry eye disease (DED) model.
# One drop (0.05 ml) of 0.1% benzalkonium chloride (BAC) was administered to both eyes of rabbits twice a day (9:00 and 17:00) for 14 days, and then induction of dry eye was identified by examination of eyes, and the rabbits were classified into groups.
# The test substance was dropped into the groups of the rabbit model twice a day (8:30 and 16:30) (Day 15 to 30 (total of 16 days)).
# Anesthesia was induced by intramuscular injection of Xylazine and Ketamine, and then one drop of Alcaine Eye Drop was administered and tear and the eye drop remaining therein were removed by using Weck-cel cellulose spear. After putting STT paper on the lower eyelid, a length of a wet region for 5 minutes was measured (STT-2). In addition, stability of the tear film was tested by measuring tear film break up time (TFBUT, measurement of time taken for the tear film to break down). Furthermore, conditions of the cornea and fluorescent staining were identified by a slit test.
# [3] = tested on: mouse dry eye model; assay: Tear volume assay (Schirmer's test strip), low-humidity+scopolamine-induced dry eye disease model; assay type: in vivo, C57BL/6
# Experimental: Corneal fluorescein score assay and tear volume assay were respectively performed on eyeballs of mice treated with the compositions of Preparation Examples 1, 2, and 3 prepared in Example 7 above by using a low-humidity+scopolamine-induced dry eye disease (DED) model.
# While the test animals were raised in a desiccating stress chamber with a relative humidity of 30% or less, scopolamine hydrobromide (S0929, Sigma-aldrich) prepared in a concentration of 2.5 mg/mL in saline (0.9% normal saline, JW Pharmaceuticals Corp.) was subcutaneously injected thereinto four times a day (QID: 09:30 AM, 12:00 PM, 15:00 PM, and 17:30 PM) for 10 days at a dose of 10 mL/kg to induce dry eye disease. The subcutaneous injection was performed at the back while moving positions to minimize damage caused by repeated administration. […]
# • (1) General anesthesia of the mice was induced (10 mg/kg xylazine and 100 mg/kg ketamine, intraperitoneal injection). • (2) After 3 hours from administration of scopolamine hydrobromide in the morning (at 9:30 AM), measurement was conducted. • (3) The volume of tear was measured by using a Schirmer's test strip cut to ½ thickness. […] Then, one drop (5 μl) of physiological saline was applied to the eyeballs. • (4) A length of a wet portion of the strip was measured by a ruler. […]
molecule,measurement,setting,value
B1,number of detached corneal epithelial cells,"[1]; after 16 days of drug treatment, concentration dependent",decreased
same,degree of detachment of corneal epithelial cells,[1]; high concentration (50 μg/ml),lowest
same,reduction of CFS level compared with Restasis,[2]; after 10 days,more than by Restasis
same,CFS level,"[2]; eye drop 0.5, 5, 50 μg/ml b.i.d., regardless of the concentration",consistently decreased
same,tear volume compared with Cyclosporine A,[3]; after 11 days,increased the tear volume far more than Cyclosporine A
same,tear volume,"[3]; eye drop 0.5, 5, 50 μg/ml, 5 μL b.i.d., regardless of the concentration, more than Cyclosporine A",consistently increased

# — US20250152663A1, “COMPOSITION FOR PREVENTION OR TREATMENT OF DRY EYE DISEASE COMPRISING HAPLN1” (HAPLNSCIENCE INC., priority 2021, published 2025)
